Target: human melanocortin 1 receptor (human) (UniProt Q01726)
Sequence (Q01726 whole entry): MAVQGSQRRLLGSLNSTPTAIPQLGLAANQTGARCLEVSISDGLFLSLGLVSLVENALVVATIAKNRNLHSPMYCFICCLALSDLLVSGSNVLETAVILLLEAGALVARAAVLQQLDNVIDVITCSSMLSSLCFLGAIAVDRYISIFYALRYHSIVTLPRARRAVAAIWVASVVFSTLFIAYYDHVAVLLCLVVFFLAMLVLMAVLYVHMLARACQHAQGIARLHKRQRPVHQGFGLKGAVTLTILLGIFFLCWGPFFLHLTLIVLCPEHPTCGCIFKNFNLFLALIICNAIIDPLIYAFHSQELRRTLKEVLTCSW

cAMP agonist EC50 (AlphaScreen cAMP assay, HEK293 cells expressing the receptor): 4.5 µM
B1: mouse β-defensin 1, linear, reduced form (peptide)
chain: DQYKCLQHGGFCLRSSCPSNTKLQGTCKPDKPNCCKS
modifications: reduced, linear form
